# Assay results reported in patent US20080166293A1.
# Biological target: human transferrin receptor (hTfR) (human) (UniProt P02786)
# Test: Scatchard analysis, 125I-labelled protein (tyrosine of the peptide iodinated) on CEF+hTfR cells on ice
# Sequence of human transferrin receptor (hTfR) (human) (P02786 whole entry): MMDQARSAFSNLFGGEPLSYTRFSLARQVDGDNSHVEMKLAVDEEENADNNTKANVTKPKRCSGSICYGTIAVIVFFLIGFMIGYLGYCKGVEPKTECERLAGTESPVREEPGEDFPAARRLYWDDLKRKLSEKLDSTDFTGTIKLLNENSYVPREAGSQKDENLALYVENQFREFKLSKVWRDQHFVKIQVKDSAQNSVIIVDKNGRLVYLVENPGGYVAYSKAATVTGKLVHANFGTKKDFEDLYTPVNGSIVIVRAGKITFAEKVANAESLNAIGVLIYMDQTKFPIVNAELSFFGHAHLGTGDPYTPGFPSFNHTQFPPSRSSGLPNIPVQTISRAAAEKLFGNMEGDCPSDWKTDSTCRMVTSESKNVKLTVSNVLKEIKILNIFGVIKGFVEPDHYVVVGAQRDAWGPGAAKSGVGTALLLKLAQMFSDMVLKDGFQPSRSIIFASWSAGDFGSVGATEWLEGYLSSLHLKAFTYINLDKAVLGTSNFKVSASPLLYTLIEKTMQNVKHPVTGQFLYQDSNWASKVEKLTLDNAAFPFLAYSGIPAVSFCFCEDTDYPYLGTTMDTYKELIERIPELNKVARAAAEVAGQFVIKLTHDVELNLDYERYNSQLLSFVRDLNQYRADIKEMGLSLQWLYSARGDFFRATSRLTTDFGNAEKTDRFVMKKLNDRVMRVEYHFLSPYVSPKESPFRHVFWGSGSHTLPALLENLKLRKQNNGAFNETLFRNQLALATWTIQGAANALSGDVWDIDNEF
substance,measurement,value
GFP-HAIYPRH (Seq. ID No. 1),Kd,360 µM
